Experimental data reported in patent publication US20040186053A1.

Tests used:
factor Xa [1] = target: factor Xa (UniProt P00742); test: cell-based or functional assay
factor Xa [2] = target: factor Xa (UniProt P00742); test: cell-based or functional assay; remark: listed apart in the source

tissue factor pathway inhibitor (TFPI) (from UniProt P10646 29-304)
inhibition of the chromogenic activity of the factor Xa preparations (factor Xa [1]): > 99%

human protein Z (PZ), isolated from citrated fresh frozen plasma (from UniProt P22891 41-400)
Apparent Inhibition (%) of factor Xa, one-stage coagulation assay; incubation factor Xa 15 sec, PZ 120 sec (factor Xa [1]): 70%
Apparent Inhibition (%) of factor Xa, one-stage coagulation assay; incubation factor Xa 30 sec, PZ 120 sec (factor Xa [1]): 71%
Apparent Inhibition (%) of factor Xa, one-stage coagulation assay; incubation factor Xa 60 sec, PZ 120 sec (factor Xa [1]): 73%
Apparent Inhibition (%) of factor Xa, one-stage coagulation assay; incubation factor Xa 90 sec, PZ 120 sec (factor Xa [1]): 76%
Apparent Inhibition (%) of factor Xa, one-stage coagulation assay; incubation factor Xa 120 sec, PZ 0 sec (factor Xa [1]): 0%
Apparent Inhibition (%) of factor Xa, one-stage coagulation assay; incubation factor Xa 120 sec, PZ 15 sec (factor Xa [1]): 50%
Apparent Inhibition (%) of factor Xa, one-stage coagulation assay; incubation factor Xa 120 sec, PZ 30 sec (factor Xa [1]): 61%
Apparent Inhibition (%) of factor Xa, one-stage coagulation assay; incubation factor Xa 120 sec, PZ 60 sec (factor Xa [1]): 72%
Apparent Inhibition (%) of factor Xa, one-stage coagulation assay; incubation factor Xa 120 sec, PZ 90 sec (factor Xa [1]): 76%
Apparent Inhibition (%) of factor Xa, one-stage coagulation assay; incubation factor Xa 120 sec, PZ 120 sec (factor Xa [1]): 78%
Apparent Inhibition (%) of factor Xa, one-stage coagulation assay; incubation factor Xa 120 sec, PZ 120 sec w/o Ca++ (factor Xa [1]): 0%
Apparent Inhibition (%) of factor Xa, one-stage coagulation assay; incubation factor Xa 120 sec, PZ 120 sec w/o cephalin (factor Xa [1]): 0%
Apparent factor Xa inhibition by inclusion of PZ during preincubation, plasma treated with preimmune IgG (clotting time) (factor Xa [1]): 76%
molar ratio (PZ:factor Xa) from PZ dose/response of ZPI-mediated factor Xa inhibition, amidolytic assay (mol PZ per mol factor Xa) (factor Xa [1]): 1.4

antithrombin III (from UniProt P01008 33-464)
t1/2 of inhibition of factor Xa by antithrombin III with PZ, cephalin and Ca++ ions (bioassay) (factor Xa [1]): 35 min

thrombin-cleaved PZ (PZT) (from UniProt P22891 84-400)
Apparent Inhibition (%) of factor Xa, one-stage coagulation assay; incubation factor Xa 120 sec, PZT 120 sec (factor Xa [1]): 0%

B1: human protein Z-dependent protease inhibitor (ZPI), purified from human plasma (protein)
chain: LAPSPQSPETPAPQNQTSRVVQAPKEEEEDEQEASEEKASEEEKAWLMASRQQLAKETSNFGFSLLRKISMRHDGNMVFSPFGMSLAMTGLMLGATGPTETQIKRGLHLQALKPTKPGLLPSLFKGLRETLSRNLELGLTQGSFAFIHKDFDVKETFFNLSKRYFDTECVPMNFRNASQAKRLMNHYINKETRGKIPKLFDEINPETKLILVDYILFKGKWLTPFDPVFTEVDTFHLDKYKTIKVPMMYGAGKFASTFDKNFRCHVLKLPYQGNATMLVVLMEKMGDHLALEDYLTTDLVETWLRNMKTRNMEVFFPKFKLDQKYEMHELLRQMGIRRIFSPFADLSELSATGRNLQVSRVLQRTVIEVDERGTEAVAGILSEITAYSMPPVIKVDRPFHFMIYEETSGMLLFLGRVVNPTLL
modifications: Plasma glycoprotein with five potential N-linked glycosylation sites; the glycans are not carried by the letters.
Maximal factor Xa inhibition, amidolytic assay, reached within <1 minute (with PZ, Ca++ ions, cephalin) (factor Xa [2]): 70%
Maximal factor Xa inhibition, bioassay, reached within <1 minute (with PZ, Ca++ ions, cephalin) (factor Xa [2]): 97%
factor Xa amidolytic activity that persists at relatively high concentrations of ZPI (factor Xa [2]): 20%
stoichiometry (ZPI:factor Xa) from ZPI dose/response, factor Xa amidolytic assay with PZ, CaCl2 and cephalin (mol ZPI per mol factor Xa) (factor Xa [2]): 1.2

B2: rZPI(Y387A), recombinant ZPI with tyrosine 387 changed to alanine (protein, UniProt Q9UK55 22-444 with Y387A, looked up)
Protein Z-dependent protease inhibitor: LAPSPQSPETPAPQNQTSRVVQAPKEEEEDEQEASEEKASEEEKAWLMASRQQLAKETSNFGFSLLRKISMRHDGNMVFSPFGMSLAMTGLMLGATGPTETQIKRGLHLQALKPTKPGLLPSLFKGLRETLSRNLELGLTQGSFAFIHKDFDVKETFFNLSKRYFDTECVPMNFRNASQAKRLMNHYINKETRGKIPKLFDEINPETKLILVDYILFKGKWLTPFDPVFTEVDTFHLDKYKTIKVPMMYGAGKFASTFDKNFRCHVLKLPYQGNATMLVVLMEKMGDHLALEDYLTTDLVETWLRNMKTRNMEVFFPKFKLDQKYEMHELLRQMGIRRIFSPFADLSELSATGRNLQVSRVLQRTVIEVDERGTEAVAGILSEITAASMPPVIKVDRPFHFMIYEETSGMLLFLGRVVNPTLL
ZPI activity of conditioned media, two-stage assay of PZ-dependent factor Xa inhibition (factor Xa [2]): < 10 mU/mL

B3: rZPI(Y387R), recombinant ZPI with tyrosine 387 changed to arginine (protein, UniProt Q9UK55 22-444 with Y387R, looked up)
Protein Z-dependent protease inhibitor: LAPSPQSPETPAPQNQTSRVVQAPKEEEEDEQEASEEKASEEEKAWLMASRQQLAKETSNFGFSLLRKISMRHDGNMVFSPFGMSLAMTGLMLGATGPTETQIKRGLHLQALKPTKPGLLPSLFKGLRETLSRNLELGLTQGSFAFIHKDFDVKETFFNLSKRYFDTECVPMNFRNASQAKRLMNHYINKETRGKIPKLFDEINPETKLILVDYILFKGKWLTPFDPVFTEVDTFHLDKYKTIKVPMMYGAGKFASTFDKNFRCHVLKLPYQGNATMLVVLMEKMGDHLALEDYLTTDLVETWLRNMKTRNMEVFFPKFKLDQKYEMHELLRQMGIRRIFSPFADLSELSATGRNLQVSRVLQRTVIEVDERGTEAVAGILSEITARSMPPVIKVDRPFHFMIYEETSGMLLFLGRVVNPTLL
ZPI activity of conditioned media, two-stage assay of PZ-dependent factor Xa inhibition (factor Xa [2]): 21 mU/mL

B4: rZPI(WT), recombinant wild-type ZPI expressed in CHO cells (protein, UniProt Q9UK55 22-444, looked up)
Protein Z-dependent protease inhibitor: LAPSPQSPETPAPQNQTSRVVQAPKEEEEDEQEASEEKASEEEKAWLMASRQQLAKETSNFGFSLLRKISMRHDGNMVFSPFGMSLAMTGLMLGATGPTETQIKRGLHLQALKPTKPGLLPSLFKGLRETLSRNLELGLTQGSFAFIHKDFDVKETFFNLSKRYFDTECVPMNFRNASQAKRLMNHYINKETRGKIPKLFDEINPETKLILVDYILFKGKWLTPFDPVFTEVDTFHLDKYKTIKVPMMYGAGKFASTFDKNFRCHVLKLPYQGNATMLVVLMEKMGDHLALEDYLTTDLVETWLRNMKTRNMEVFFPKFKLDQKYEMHELLRQMGIRRIFSPFADLSELSATGRNLQVSRVLQRTVIEVDERGTEAVAGILSEITAYSMPPVIKVDRPFHFMIYEETSGMLLFLGRVVNPTLL
ZPI activity of conditioned media, two-stage assay of PZ-dependent factor Xa inhibition (factor Xa [2]): 375 mU/mL
